Like-named read-outs stand apart in the source and are kept apart here. Non-standard residues stand in square brackets, D forms with d. DO3A10CM = not defined here; Bpa4 = non-natural residue; Amfe4 = not defined here; azaGly = NNC(=O)O; Sar = CNCC(=O)O
B1: BRU-2968 (peptide)
peptide: XRWSHXWXP
modifications: N-terminal DO3A10CM; Dnal2 at 1; Darg at 6; Bpa4 at 8; C-terminal Da15o3pt at 10
B2: BRU-2443 (peptide)
peptide: XHWSHXWXPX
modifications: DO3A10CM on N-terminus; AA1 Sar; AA6 Darg; AA8 Bpa4; AA10 azaGly-NH2
B3: BRU-3074 (peptide)
peptide: XRWSHXWXP
modifications: AA1 Sar; AA6 Darg; AA8 Bpa4; C-terminal Pro9-NHNH-DO3A10CM
B4: BRU-3086 (peptide)
peptide: XRWSHXWXP
modifications: AA1 Sar; AA6 Darg; AA8 Bpa4; C-terminal Pro9-M1daprp13-DO3A10CM
B5: BRU-2717 (peptide)
peptide: GXHWSHXWXPX
modifications: DO3A10CM-Gly (linker) on N-terminus; AA1 Sar; AA6 Darg; AA8 Bpa4; AA10 azaGly-NH2
B6: BRU-2727 (peptide)
peptide: XXHWSHXWXPX
modifications: as printed: DO3A10CM-Ambz4-Sar-His-Trp-Ser-His-Darg-Trp-Bpa4-Pro-azaGly-NH2 (Ambz4 is the linker)
B7: BRU-2896 (peptide)
peptide: XHWSHXWXPX
modifications: as printed: DO3A10CM-Adoa-Adoa-Sar-His-Trp-Ser-His-Darg-Trp-Bpa4-Pro-azaGly-NH2 (Adoa-Adoa is the linker)
B8: BRU-2869 (peptide)
peptide: XHWSHXWXPX
modifications: N-terminal DO3A10CM; Dnal1 at 1; Darg at 6; Bpa4 at 8; azaGly-NH2 at 10
B9: BRU-2733 (peptide)
peptide: GHWSHXWXPX
modifications: as printed: DO3A10CM-Gly-His-Trp-Ser-His-Darg-Trp-Bpa4-Pro-azaGly-NH2 (Gly is AA1)
B10: BRU-2795 (peptide)
peptide: GGHWSHXWXPX
modifications: as printed: DO3A10CM-Gly-Gly-His-Trp-Ser-His-Darg-Trp-Bpa4-Pro-azaGly-NH2 (first Gly is the linker)
B11: BRU-3002 (peptide)
peptide: XXRWSHXWXPX
modifications: N-terminal DO3A10CM; Gly-Abz4 linker before 1; Dnal2 at 1; Darg at 6; Bpa4 at 8; azaGly-NH2 at 10
B12: BRU-3096 (peptide)
peptide: XXRWSHXWXPX
modifications: N-terminal DO3A10CM; Dap linker before 1; Dnal2 at 1; Darg at 6; Bpa4 at 8; azaGly-NH2 at 10
B13: BRU-3097 (peptide)
peptide: KXRWSHXWXPX
modifications: N-terminal DO3A10CM; Lys linker before 1; Dnal2 at 1; Darg at 6; Bpa4 at 8; azaGly-NH2 at 10
B14: BRU-3099 (peptide)
peptide: XXRWSHXWXPX
modifications: N-terminal DO3A10CM; Dlys linker before 1; Dnal2 at 1; Darg at 6; Bpa4 at 8; azaGly-NH2 at 10
B15: BRU-3100 (peptide)
peptide: XRWSHXWXP
modifications: N-terminal DO3A10CM; Da48oa linker before 1; Dnal2 at 1; Darg at 6; Bpa4 at 8; C-terminal Da15o3pt at 10
B16: BRU-2990 (peptide)
peptide: XRWSHXWXPG
modifications: as printed: Dnal2-R-W-S-H-Darg-W-Bpa4-P-G-Dabt14-DO3A10CM (C-terminal chelator)
B17: BRU-2991 (peptide)
peptide: XRWSHXWXP
modifications: Dnal2 at 1; Darg at 6; Bpa4 at 8; C-terminal Da15o3pt linker carrying DO3A10CM
B18: BRU-2992 (peptide)
peptide: XRWSHXWXP
modifications: Ac-Dnal2 at 1; Darg at 6; Bpa4 at 8; C-terminal Da15o3pt linker carrying DO3A10CM
B19: BRU-3039 (peptide)
peptide: XRWSHXWXP
modifications: Sar at 1; Darg at 6; Bpa4 at 8; C-terminal Da15o3pt linker carrying DO3A10CM
B20: BRU-3041 (peptide)
peptide: XRWSHXWXP
modifications: Sar at 1; Darg at 6; Bpa4 at 8; C-terminal Dabt14 linker carrying DO3A10CM

Columns and labels:
[1] = target: LHRH receptor (LHRH binding sites) on EFO-27 human ovarian cancer cells (human); assay: competition with [125I-Tyr8]BRU-2477 for binding to EFO-27 cells
EFO-27 cells = assay: Internalization/efflux studies in EFO-27 cells; assay type: cell-based, human; conditions: for Cell associated activity at 0 h % Intern / Cell associated activity at 2 h % Intern: internalized; for Cell associated activity at 0 h % Memb / Cell associated activity at 2 h % Memb: membrane bound; for Bound %: of added; for Bound: per well
Description: Internalization/Efflux Studies: The internalization and efflux studies were carried out following the general procedure. Basically, ^177Lu-LHRH II or ^125I-LHRH II ([^125I-Tyr^8]BRU-2477) (75 uL, 3.0 μCi/mL) was added to the EFO-27 or PC-3 cells. The cells were incubated for 40 min at 37° C. The unbound radioactivity was washed off (4×). Following addition of fresh medium, the cells were further incubated for up to 2 h. At various time points (15, 30, 60 & 120 min) the distribution of radioactivity (membrane-bound, internalized, and efflux) was determined
The internalization and efflux of several Lu-177 labeled LHRH II analogs in EFO-27 cells have been investigated. Basically, following pre-incubation of cells with ^177Lu-LHRH II samples, the binding buffer containing the ^177Lu was replaced with fresh media without complex. The extent of initial internalization (T=0), the amount of radioactive material that remained internalized and the efflux at 0-120 min were determined. The results are shown in FIGS. 21a-f and 22a-c and in Table 25.

[2] = system: LHRH binding sites on human ovarian cancer cells (EFO-27);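 further: Cell-associated radioactivity on confluent EFO-27 monolayers in 96-well plates, measured by microplate scintillation counting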
[3] = target: LHRH receptor (LHRH binding sites) on EFO-27 human ovarian cancer cells (human); assay: competition with [125I-Tyr8]BRU-2477, EFO-27 cells
[4] = target: LHRH binding sites on EFO-27 human ovarian cancer cells (human); assay: competition with [125I-Tyr8]BRU-2477 on EFO-27 cells

Row | Molecule | EC50 [1] [nM] | EC50 [3] [nM] | other results
1 | DO3A10CM-Adoa-Sar-His-Trp-Ser-His-Darg-Trp-Bpa4-Pro-azaGly-NH2 (Seq111) (peptide) | 3300 |  | 
2 | BRU-2756: DO3A10CM LHRH-II analog prepared in house for Lu labeling (DO3A10CM-[Sar][Amfe4]WSH[dR]W[Bpa4]P[azaGly]-NH2; reading uncertain) |  |  | Cell associated activity at 0 h % Efflux (EFO-27 cells): 7.7%; Cell associated activity at 0 h % Intern (EFO-27 cells): 42.0%; Cell associated activity at 0 h % Memb (EFO-27 cells): 51.5%; Cell associated activity at 2 h % Efflux (EFO-27 cells): 82.5%; Cell associated activity at 2 h % Intern (EFO-27 cells): 9.9%; Cell associated activity at 2 h % Memb (EFO-27 cells): 7.4%; Bound % (EFO-27 cells): 5.10%; Bound (EFO-27 cells): 10.2 fmol; EC50 ([2]; Table 5: modifications of amino acids at positions 1 and 2, in vitro binding on EFO-27 cells): 280 nM
3 | N=C(N)NCCC[C@H](NC(=O)[C@@H](Cc1ccc2ccccc2c1)NC(=O)CN1CCN(CC(=O)O)CCN(CC(=O)O)CCN(CC(=O)O)CC1)C(=O)N[C@@H](Cc1c[nH]c2ccccc12)C(=O)N[C@@H](CO)C(=O)N[C@@H](Cc1c[nH]cn1)C(=O)N[C@H](CCCNC(=N)N)C(=O)N[C@@H](Cc1c[nH]c2ccccc12)C(=O)N[C@@H](Cc1ccc(C(=O)c2ccccc2)cc1)C(=O)N1CCC[C@H]1C(=O)NCCOCCN [BRU-2968, DO3A10CM-Dna12-Arg-Trp-Ser-His-Darg-Trp-Bpa4-Pro-Da15o3pt] |  |  | Cell associated activity at 0 h % Efflux (EFO-27 cells): 4.9%; Cell associated activity at 0 h % Intern (EFO-27 cells): 14.1%; Cell associated activity at 0 h % Memb (EFO-27 cells): 80.8%; Cell associated activity at 2 h % Efflux (EFO-27 cells): 52.9%; Cell associated activity at 2 h % Intern (EFO-27 cells): 9.0%; Cell associated activity at 2 h % Memb (EFO-27 cells): 38.1%; Bound % (EFO-27 cells): 23.59%; Bound (EFO-27 cells): 68.8 fmol; EC50 [2]: 240 nM
4 | B1 | 240 | 240 | EC50 [4]: 240 nM
5 | B2 | 950 |  | EC50 [4]: 950 nM; fold improvement of EC50 against the Tyr8 analog (BRU-2758) [4]: 10 fold
6 | B3 | 1480 |  | fold reduced binding against peptide 18 (BRU-3103) [4]: 5 to 6 fold
7 | B4 | 1020 |  | fold reduced binding against peptide 18 (BRU-3103) [4]: 5 to 6 fold
8 | B5 | 1530 |  | EC50 [4]: 1550 nM
9 | B6 | 650 |  | 
10 | B7 | 3200 |  | 
11 | B8 | 360 | 360 | EC50 [4]: 360 nM
12 | B9 | 1180 |  | 
13 | B10 | 1370 |  | 
14 | B11 | 500 | 500 | 
15 | B12 | 370 | 370 | 
16 | B13 | 450 | 450 | 
17 | B14 | 440 | 440 | 
18 | B15 | 140 | 140 | 
19 | B16 | 30200 |  | 
20 | B17 | 210 | 210 | 
21 | B18 | 470 | 470 | 
22 | B19 | 280 | 280 | 
23 | B20 | 360 | 360 | 

From patent publication US20120045393A1 (priority 2009, published 2012)
